Data published in patent publication US20260028391A1.

Assays:
[1] = target: MPV fusion glycoprotein with the D280N mutation (MPV-F N280) (metapneumovirus); test: SPR; F protein loaded on streptavidin sensors, mAb in solution
[2] = target: MPV fusion glycoprotein without the D280N mutation (MPV-F D280) (metapneumovirus); test: as above
[3] = target: fusion glycoprotein of the MPV D280 used in the neutralization assay of Example 3 (metapneumovirus (strain not stated)); test: cell-based or functional assay
[4] = target: fusion glycoprotein of the RSV used in the neutralization assay of Example 1 (respiratory syncytial virus (strain not stated)); test: cell-based or functional assay

Binder	Kd [1]	Kd [2]	MPV D280 Neutralization - IC50 [3]	RSV Neutralization - IC50 [4]
MPK136 (antibody, V domains shown) VH: EVQLVESGGGLVKPGGSLRLSCEASGFSLSGYYMIWIRQAPGKGLEWISSISGSGNYINYADSVKGRFTVSRDNGHNTLYLQMNSLRVEDTAVYYCATEQTPSPGPFDHWGQGTLVTVSS VL: QVQLVQPPSVSGAPGQRVSISCTGTSSNIGTGYDVHWYQQFPGTSPKLLIYRNTNRPSGVPDRFSGSKSGSSASLAIAGLQAEDEADYYCQSYDRSVSGWVFGGGTKLTVL	4.6 nM	0.001 nM	0.0158 µg/mL	0.0344 µg/mL
MPK162 (antibody, V domains shown) VH: EVQLVESGGGLVKPGDSLRLSCAASGFSLSSYYMFWIRQAPGKGLEWVSDISGGSTFTNYADSVKGRFTISRDNAKKVLYLQMNSLRVDDSAVYYCVRGSSISPNWFESWGQGALVTVSS VL: QSVLTQPPSVSGAPGQRVTISCTGTSSNIGAGYDVHWYQQVPGTAPKLLIYGNSNRPSGVPDRFSGSKSGTAASLAINGLQTEDEAEYYCQSYDRSLTGSYVFGSGTRVFVR	100 nM	100 nM	0.102 µg/mL	0.0252 µg/mL
MPK141 (antibody, V domains shown) VH: EVQLVESGGGLVKPGGSLRLSCAASGFTISGYYMTWIRQAPGKGLEWISYISGSSSYTNYADSVKGRFTISRDNGRNSVYLQMNSLRADDTGVYYCAREETPSPGPFDSWGQGILVTVSS VL: QSVLTQPPSVSGAPGQRIIISCIGSSSNIGTGYDVHWYQQLPGRAPKLLISRNTNRPSGIPDRFSGSKSGTSASLAITGLQADDEADYYCQSYDRGLDGWVFGGGTKLTVL	0.84 nM	0.001 nM	0.0098 µg/mL	0.014 µg/mL
MPK174-v2 (antibody, V domains shown) VH: EVQLVESGGGLVKPGGSLRLSCAASRFKFGDYYMSWIRQAPGKGLEWVSNISPSSSYTNYADSVKGRFTISRDNAKNLLYLQMNSLRAEDTAVYYCARESCSGGSCSLHGMDVWGQGTTVTVAS VL: QSVLTQPPSVSGAPGQRVTISCTGSSSNIGAGYDVHWYQQLPGTAPKLLIYDNSNRPSGVPDRFSGSKSGTSASLAITGLRAEDDADYYCQSYDRSLGGSIFGGGTKLTVL	100 nM	11 nM	0.0177 µg/mL	0.0136 µg/mL
MPK142-v1 (antibody, V domains shown) VH: EVQLVESGGGLVEPGGSLRLSCAASGFTISGYGMSWVRQAPGKGLEWVSSISASSSYIYYGDAMKGRITISRDNGWNSMYLQMNSLRTEDTAVYYCATAPIEPPYFDLWGRGTLVTVSS VL: QSVLTQPPSVSGAPGQRVTISCTGSSSNIGAGYDVHWYQQFPGKAPKVLIYGNNNRPSGVPDRFAASNSGASASLAITGLQAEDEAAYFCQSYDRRLSGPVFGGGTKLTVL	100 nM	100 nM	0.003 µg/mL	0.0211 µg/mL
MPK142-v2 (antibody, V domains shown) VH: EVQLVESGGGLVEPGGSLRLSCAASGFTISGYGMSWVRQAPGKGLEWVSSISASSSYIYYGDAMKGRITISRDNGWNSMYLQMNSLRTEDTAVYYCATAPIEPPYFDLWGRGTLVTVSS VL: DIQLTQTPTSLSASVGDRVTFTCRASQNIGFYLNWYQQKPGKAPRLLIYGASNLQSGVPSRFSGSGAGTDFSLTISSLQPEDFATYYCQQSFNTPRTFGQGTKVEIN	0.2 nM	0.0027 nM	0.135 µg/mL	0.162 µg/mL
MPK144 (antibody, V domains shown) VH: EVQLVESGGGLVRPGGSLRLSCAASGFTFTGYYMMWIRQAPGKGLEWISDISSSSSYTNYADSVKGRFAISRDNAQNTLYLQMNSLRAEDTAVYYCATEQVPSPGPFDLWGQGTLVTVSS VL: QSVLTQPPSVSGAPGQRVTISCTGSSSNFGAGYDVHWYQQFPGTSPKLLIYRNTNRPSGVPDRFSGSKSGTSASLAITGLQAEDEADYYCQSYDRSLTGWVFGGGTKLTVL	100 nM	0.81 nM	0.0049 µg/mL	0.0082 µg/mL
MPK145 (antibody, V domains shown) VH: EVQLVESGGGLVEPGGSLRLSCAASGFTISGYGMSWVRQAPGKGLEWVSSISASSSYIYYGDAMKGRITISRDNGWNSMYLQMNSLRTEDTAVYYCATAPIEPPYFDLWGRGTLVTVSS VL: QSVVTQPPSVSGAPGQRVTISCTGSSSNIGAGYDVHWYQQFPGKAPKVLIYGNNNRPSGVPDRFAASNSGASASLAITGLQAEDEAAYFCQSYDRRLSGPVFGGGTKLTVL	0.85 nM	0.001 nM	0.0078 µg/mL	0.0239 µg/mL
MPK149 (antibody, V domains shown) VH: QVQLVESGGGLVKPGGSLRLSCEASGFTISGYFMIWIRQAPGKGLEWISSISGSSTYTDYAESVKGRFTISRDNGRSTLYLQMNSLRVEDTAVYYCATEQTPSPGPFDLWGQGTLVTVSS VL: QSVVTQPPSVSGAPGQRVTISCTGTSSNIGAGYDVHWYQQFPGTSPRLLINRNTNRPSGVPDRFSGSQSGSSASLAIAGLQAEDEADYYCQSYDRSVSGWVFGGGTKLTVL	0.4 nM	0.001 nM	0.0192 µg/mL	0.0335 µg/mL
MPK150-v2 (antibody, V domains shown) VH: EVQLVESGGGLVKPGGSLRLSCEASGISLSGYYMIWIRQAPGKGLEWISSISGSSTYIDYADSVRGRFTISRHNGQNTIYLQMNSLRVEDTAVYFCATEQTPSPGPFELWGRGILVTVSS VL: QSVLTQPPSVSGAPGQRVTIFCTGTSSNIGTGYDVHWYQQFPGTSPKLLIFRNSNRPSGVPDRFSGSKSGSSASLAIAGLQAEDEADYYCQSYDRGVNGWVFGGGTKLTVL	0.58 nM	0.001 nM	0.0158 µg/mL	0.0147 µg/mL
MPK196 (antibody, V domains shown) VH: QVQLVESGGGLVKPGGSLRLSCAASRFKFGDYYMSWIRQAPGKGLEWVSNISPSSSYTNYADSVKGRFTISRDNANNLLYLQMNSLRAEDTAVYYCARESCSGGSCSLHGMDVWGQGTTVTVAS VL: QSVLTQPPSVSGAPGQRVTISCTGSSSNIGAGYDVHWYQQLPGTAPKLLIYDNSNRPSGVPDRFSGSKSGTSASLAITGLRAEDDADYYCQSYDRSLGGSIFGGGTKLTVL	100 nM	3.8 nM	0.027 µg/mL	
MPK193 (antibody, V domains shown) VH: EVQLVQSGAEVKKPGESLKISCEASGYSFNNYWIGWVRQMPGKGLEWMGIIYPFDSDTKYSPSFQGHVTISADKSINTAYLQWSSLKASDTAMYFCARFTFGIVLVAGDVTGEGHAFDVWGRGTMVTVTS VL: EIVMMQSPVTLSVSPGGRATLSCRASQSVAGNLAWYQQRPGQAPRLLIYGASTRATGVPARFSGSGSETEFTLTISSLQSEDFAVYYCHHYSNWPQAFGQGTRLDIK				0.001 µg/mL
MPK201 (antibody, V domains shown) VH: EVQLVQSGAEVKKPGESLKISCQGSGYSFINYWIGWVRQKPGKGLEWMGIIYPFDSETKYSPSFQGHVTFSADKSINTAYVQWSSLRASDTAMYYCARFTFGLAVTTADVSGEGQAFEIWGQGTMVTVSS VL: EIVMMQSPATLSVSPGERATLSCRASQSVAGNLAWYQQRPGQAPRLLVYGASTRASGVPARFSGSGSETEFTLTISSLQSEDFAVYYCHHYSDWPQAFGQGTRLDIK				0.0024 µg/mL
MPK130 (antibody, V domains shown) VH: EVQLVESGGGLVKPGGSLTLSCEASGFSISGYYMIWVRQAPGKGLEWVSSISASDTYIDYAVSVQGRFTISRHNTKNSLYLQMSSLRVEDTGVYYCTREKVPSPGPFDCWGQGTLVTVSS VL: QSVLTQPPSVSGAPGQRITISCTGTSSNIGAGYDVHWYQHLPGAAPRLLIYVNTNRPSGVPDRFSGARSGTSASLAITGLQAEDEADYYCQSYDRSLGGWAFGEGTKVTVL	1.9 nM	0.018 nM		
MPK133 (antibody, V domains shown) VH: QVQLVQSGGGLVKPGGSLRLSCAASEFSFSGYFMIWIRQAPGKGLEWISYISGSSTYTNYADSVKGRFTISRDNAQNTLYLEMNSLRAEDTGVYYCATEQVPSPGPFDLWGQGTLVTVSS VL: QSVLTQPPSVSGAPGQRVTISCTGSSSNIGAGYDVHWYQQFPGRSPTLLIYRNTNRPSGVPDRFSGSQSGSSASLAITGLQAEDEADYYCQSYDRTLSGWAFGGGTKVTVL	3.7 nM	0.082 nM		
MPK146 (antibody, V domains shown) VH: QVQLVESGGGLVKPGGSLRLSCAASGFTFSGYYMIWIRQAPGKGLEWIASISGSSNYIDYADSVRGRFTISRDNARNILDLQMNSLRAGDTALYYCATEQVPSPGPFDLWGQGTLVTVSS VL: QSVLTQPPSVSGAPGQRVTISCTGSNSNLGAGYDVHWYQQFPGTSPKLLIYRNTNRPSGVPDRFAGSKSGTSASLAITGLQAEDEADYYCQSYDRSLSGWVFGGGTKLTVL	7.2 nM	0.001 nM		
MPK158 (antibody, V domains shown) VH: EVQLVESGGGLVKPGGSLRLSCAASGFSISGFYMIWIRQAPGKGLEWISDISASSSYIDYADSVKGRFTISRDNGQNTVHLLMNNLRADDTGVYYCAREQTPSPGPFDLWGQGTLVTVST VL: QPVLTQPPSVSGAPGQRVTISCTGRSSNIGAGYDVHWYQHLPGTSPKLLIYRNSNRPSGVPDRFSGSTSGTSASLAITGLQADDEADYYCQAYDRILGGWAFGGGTKLTVL	0.29 nM	0.001 nM		
MPK204 (antibody, V domains shown) VH: QVQLVESGGGLVKPGGSLRLSCEASGLSLSGYYMIWIRQAPGKGLEWISSISSSSNYIDYADSVKGRFTISRHNGQNTLYLQMNSLRVEDTAVYYCATEQTPSPGPFDLWGQGTLVTVSS VL: QSVLTQPPSVSGAPGQRVTISCTGTSSNIGTGYDVHWYQQFPGTSPKLLIYRNTNRPSGVPDRFSGSKSGSSASLAIAGLQAEDEADYYCQSYDRSVSGWVFGGGTKLTVL	2.6 nM	0.001 nM		
